Source: the RNAGym collection of RNA variant scans (doi:10.7554/elife.80360)

B1: Twister Ribozyme (parent)
chain: AACACUGCCAAUGCCGGUCCCAAGCCCGGAUAAAAGUGGAGGGGGCGG

Variants of: B1
Test: self-cleavage, relative activity (ratio to wild type); higher = more cleavage; co-transcriptional

| Variant | self-cleavage |
| --- | --- |
| G7U A32G | 0.0756 |
| U6G U12G | 0.343 |
| U6G U12A | 0.769 |
| U6G U12C | 0.35 |
| G7C G39C | 0.071 |
| G7U C21G | 0.0215 |
| G7U C21U | 0.0705 |
| G7A G36A | 0.109 |
| G7U C19U | 0.0568 |
| G7U C19G | 0.0806 |
| U6G G24A | 0.0855 |
| U6C G16A | 0.318 |
| U6C G16C | 0.146 |
| U6G | 0.486 |
| G7U C46A | 0.0526 |
| U6G C8A | 0.212 |
| U6G C25A | 0.058 |
| G7C C27U | 0.0315 |
| G7C C27A | 0.0706 |
| G7C C27G | 0.073 |
| U6G G42C | 0.156 |

| Variant | self-cleavage |
| --- | --- |
| U6G G42U | 0.0829 |
| G7U G24C | 0.0734 |
| G7U G24U | 0.0676 |
| G7C G28U | 0.093 |
| G7C G28A | 0.0408 |
| G7C C20G | 0.0473 |
| G7C C20U | 0.122 |
| C8A G43U | 0.119 |
| C8A G43A | 0.177 |
| G7A C27A | 0.112 |
| G7A C25A | 0.0809 |
| G7A C25G | 0.237 |
| G7C A11C | 0.0664 |
| G7C A11U | 0.0693 |
| U6G G16A | 0.226 |
| C8A C20G | 0.0882 |
| C8A C15G | 0.0688 |
| C8A C15U | 0.365 |
| G7A A40U | 0.127 |
| G7A A40C | 0.132 |
| C8A G39A | 0.154 |

| Variant | self-cleavage |
| --- | --- |
| C8A G39C | 0.148 |
| C8A A11U | 0.7 |
| C8A A11C | 0.514 |
| C8A A11G | 0.588 |
| G7U G39C | 0.0429 |
| G7U G39A | 0.0425 |
| G7A C46A | 0.354 |
| C8G | 0.558 |
| C8A | 0.61 |
| G7A A30G | 0.405 |
| G7C C15G | 0.0181 |
| G7C C15A | 0.0454 |
| U6C G24C | 0.0688 |
| U6C G24A | 0.0737 |
| G7A G17U | 0.103 |
| G7A G17A | 0.083 |
| G7A G24U | 0.0739 |
| U6G G41C | 0.092 |
| G7U A22G | 0.0616 |
| G7U A22U | 0.0446 |
| G7U A22C | 0.11 |

| Variant | self-cleavage |
| --- | --- |
| G7U G17U | 0.0401 |
| C8A A10G | 0.734 |
| C8A A10C | 0.594 |
| U6G A34C | 0.539 |
| U6G A34G | 0.392 |
| G7C C21G | 0.0593 |
| G7C C21U | 0.0396 |
| G7C G16C | 0.13 |
| G7C A23U | 0.0664 |
| G7U G48A | 0.078 |
| G7C G43C | 0.0825 |
| C8G A11G | 0.392 |
| U6G A11U | 0.381 |
| U6G G44U | 0.242 |
| G7U C27G | 0.0829 |
| C8A C46A | 0.167 |
| C8A C46G | 0.353 |
| U6C G17C | 0.0484 |
| U6C G17A | 0.0938 |
| C8A A32G | 0.331 |
